Drawing on PMC12589613, this text covers proportion of MDA5ΔN translocation events that were stopped (immobile) on 11.6-kb dsRNA with LGP2(intermut), smTIRF for one molecule.

The assay addresses MDA5ΔN (residues 287–1025) (human) (UniProt Q9BYX4).

Chain of MDA5ΔN (residues 287–1025) (human) (Q9BYX4 287-1025, stated change not applied): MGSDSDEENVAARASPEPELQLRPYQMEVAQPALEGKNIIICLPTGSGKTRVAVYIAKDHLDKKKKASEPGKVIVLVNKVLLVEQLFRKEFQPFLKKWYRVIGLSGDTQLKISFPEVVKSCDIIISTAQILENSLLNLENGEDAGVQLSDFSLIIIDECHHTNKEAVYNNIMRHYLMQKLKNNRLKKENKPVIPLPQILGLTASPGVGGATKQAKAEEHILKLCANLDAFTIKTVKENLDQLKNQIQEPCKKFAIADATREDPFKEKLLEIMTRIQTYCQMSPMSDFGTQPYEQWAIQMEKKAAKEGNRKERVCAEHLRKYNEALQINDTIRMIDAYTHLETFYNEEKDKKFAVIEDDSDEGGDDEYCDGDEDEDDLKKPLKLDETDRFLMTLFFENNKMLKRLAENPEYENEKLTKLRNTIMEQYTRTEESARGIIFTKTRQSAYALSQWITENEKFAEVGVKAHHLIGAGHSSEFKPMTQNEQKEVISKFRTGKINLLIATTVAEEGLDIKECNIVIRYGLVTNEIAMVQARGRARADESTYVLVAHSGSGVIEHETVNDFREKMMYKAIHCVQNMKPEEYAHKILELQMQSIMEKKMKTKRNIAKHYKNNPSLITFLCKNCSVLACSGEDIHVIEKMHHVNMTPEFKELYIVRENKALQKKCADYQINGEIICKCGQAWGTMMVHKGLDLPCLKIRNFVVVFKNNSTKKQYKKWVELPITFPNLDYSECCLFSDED

B1: LGP2(E116A, E117A, D603A) (natural protein)
chain: MELRSYQWEVIMPALEGKNIIIWLPTGAGKTRAAAYVAKRHLETVDGAKVVVLVNRVHLVTQHGEEFRRMLDGRWTVTTLSGDMGPRAGFGHLARCHDLLICTAELLQMALTSPEAAEHVELTVFSLIVVDECHHTHKDTVYNVIMSQYLELKLQRAQPLPQVLGLTASPGTGGASKLDGAINHVLQLCANLDTWCIMSPQNCCPQLQEHSQQPCKQYNLCHRRSQDPFGDLLKKLMDQIHDHLEMPELSRKFGTQMYEQQVVKLSEAAALAGLQEQRVYALHLRRYNDALLIHDTVRAVDALAALQDFYHREHVTKTQILCAERRLLALFDDRKNELAHLATHGPENPKLEMLEKILQRQFSSSNSPRGIIFTRTRQSAHSLLLWLQQQQGLQTVDIRAQLLIGAGNSSQSTHMTQRDQQEVIQKFQDGTLNLLVATSVAEEGLDIPHCNVVVRYGLLTNEISMVQARGRARADQSVYAFVATEGSRELKRELINEALETLMEQAVAAVQKMDQAEYQAKIRDLQQAALTKRAAQAAQRENQRQQFPVEHVQLLCINCMVAVGHGSDLRKVEGTHHVNVNPNFSNYYNVSRDPVVINKVFKAWKPGGVISCRNCGEVWGLQMIYKSVKLPVLKVRSMLLETPQGRIQAKKWSRVPFSVPDFDFLQHCAENLSDLSLD
With B1, the proportion of MDA5ΔN translocation events that were stopped (immobile) on 11.6-kb dsRNA with LGP2(intermut), smTIRF stood at 23%.
